According to paper PMC3904923, “Pivoting between Calmodulin Lobes Triggered by Calcium in the Kv7.2/Calmodulin Complex” (PLoS ONE, 2014):

Columns and labels:
Conditions in all cases: both partners purified
[1] = target: T1, CaM C-lobe (residues 79–148) (human, UniProt P0DP23 80-149); assay: other fluorescence titration; competition: 12.5 nM D-CaM mixed with helix A (65.6 nM) or helix B (42.6 nM), isolated lobe added incrementally; with Ca2+; one site Hill fit, Kd derived assuming 1:1 binding
T1 construct: human calmodulin C-lobe, residues 79-148; cDNA from the group of Daniel L. Minor Jr; also called C-domain; CaM 79–148; source: produced as described previously [28], purified

[2] = target: T2, CaM N-lobe (residues 1–78) (human, UniProt P0DP23 2-79); assay: as above
T2 construct: human calmodulin N-lobe, residues 1-78; cDNA from the group of Daniel L. Minor Jr; also called N-domain; CaM 1–78; source: produced as described previously [28], purified

[3] = target: T3, dansylated calmodulin (rat, UniProt P0DP30 1-149, dansyl group covalently bound to CaM (position not given)); assay: other fluorescence titration; 12.5 nM D-CaM, ligand added incrementally, enhancement of dansyl emission; 25 mM Tris-HCl, 120 mM KCl, 5 mM NaCl, 2 mM MgCl2, 10 mM EGTA, pH 7.4; no free Ca2+; apparent affinity (EC50 of a Hill fit)
T3 construct: calmodulin, rat brain, NM_017326; also called D-CaM; dansyl-CaM

[4] = target: T1, CaM C-lobe (residues 79–148); assay: other fluorescence titration; competition: 12.5 nM D-CaM mixed with helix A (46.4 nM) or helix B (20.1 nM), isolated lobe added incrementally; no Ca2+; one site Hill fit, Kd derived assuming 1:1 binding
[5] = target: T2, CaM N-lobe (residues 1–78); assay: as above
[6] = target: T3, dansylated calmodulin; assay: other fluorescence titration; 12.5 nM D-CaM, ligand added incrementally, enhancement of dansyl emission; D-CaM binding buffer with 3.9 µM free Ca2+ (9.63 mM Ca2+, 2 mM Mg2+, 10 mM EGTA, pH 7.4); apparent affinity (EC50 of a Hill fit)

Kd [1]: 17 nM | Kd [2]: 267 nM | EC50 [3]: 46.4 nM | Kd [4]: 169 nM | Kd [5]: 530 nM | EC50 [6]: 65.6 nM
B1: Kv7.2 helix A (hA residues G310–T359) (domain or fragment, human, UniProt O43526 310-359, looked up)
chain: GILGSGFALKVQEQHRQKHFEKRRNPAAGLIQSAWRFYATNLSRTDLHST
notes: helix A of human Kv7.2 (KCNQ2) Y15065, residues G310-T359; also called segment A; source: E. coli BL21-DE3, purified (GSH sepharose)
